Results taken from publication PMC8138844 (Cell Research, 2021).

molecular target: SARS-CoV-2 S protein receptor-binding domain (RBD), residues 319–541 (SARS-CoV-2, UniProt P0DTC2); assay: crystal structure; conditions: both partners purified

Binder | binding result
BD-515 Fab (Fab, V domains shown) VH: EVQLVESGGGLVQPGGSLRLSCAASEFIVSRNYMSWVRQAPGKGLEWVSVIYSGGSTFYADSVKGRFTISRDNSKNTLYLQMNSLRAEDTGVYYCARDRGLVSDYWGQGTLVTVSS VL: DIQMTQSPSSLSASVGDRVTITCQASQDINKYLNWYQQKPGKAPKLLIFDASHLETGVPSRFSASGSGTDFTFTISSLQPEDIATYYCHQYDNLPRTFGQGTRLEIK | binds
BD-623 Fab (Fab, V domains shown) VH: EVQLVESGGGLVQPGGSLRLSCAASGVTVSSNYMSWVRQAPGKGLEWVSAVYSGGSTYYADSVKGRFTISRHNSKNTLYLQMKSLRPEDTAIYYCARLINHYYDSSGDGGAFDIWGQGTMVTVSS VL: LTQPASVSGSPGQSITISCTGTSSDVGSYNLVSWYQQRPGKAPKLILYEVTKRPSGVSNRFSGSKSGNTASLAISGLQAEDEADYYCCSYAGSSTWVFGGGTKLTVL | binds
BD-508 Fab (Fab, V domains shown) VH: EVQLVESGGGLVQPGGSLRLSCAASGFIVSSNYMTWVRQAPGKGLEWVSVIYSGGSTFYADSVKGRFTISRHNSKNTLFLQMNSLRAEDTAVYYCARDAQNYGMDVWGQGTTVTVSS VL: DIQMTQSPSSLSASVGDRVTITCRASQSISSYLNWYQQKPGKAPKLLIFAASSLQTGAPSRFSGSGSGTDFTLTISSLQPEDFATYYCQQSYSTPPYTFGQGTKLEIK | binds
